Experimental findings from PMC7269092 are described below.

The test concerns the target NLuc-NS2B-E66stop (DENV2). The experiment in a line: split reporter.

Turning to “MBP-NS3 (from UniProt P29990 1476-2093) (enzyme)”, the IC50 – broadly, the concentration needed to halve the response being measured – stood at 2500 nM.
